Measured values published in the RNAGym collection of RNA variant scans (doi:10.7554/elife.80360).

B1: HDV Ribozyme (parent)
chain: GGCCGGCAUGGUCCCAGCCUCCUCGCUGGCGCCGGCUGGGCAACAUUCCGAGGGGACCGUCCCCUCGGUAAUGGCGAAUGGGACCCA

Variants of: B1
Assay: self-cleavage, relative activity (ratio to wild type); higher = more cleavage; co-transcriptional

Variant	self-cleavage
G59U C61U	0.997
C58U G74A	0.462
C58G C62U	0.73
C58G C62G	0.639
C58U U79A	1.07
U60C A70C	1.04
G59C G73C	0.575
C58G U60A	1.06
C58U G59U	1.05
G59A G68C	0.969
G59A G68U	0.92
G59A A71C	0.743
G59A C86G	1.01
G59A C86U	0.793
U60C A78U	0.229
U60C A78C	0.19
G59C G82C	0.522
U60C G80A	0.386
U60A G81A	0.514
G59C C62U	1.12
C58G C64G	0.853

Variant	self-cleavage
G59U C64G	1.13
G59U C64U	1.05
U60C C63U	0.98
G59A C84A	0.929
G59C C66G	1.14
C58A G80C	0.0707
U60A C85A	0.831
U60A U79A	0.923
U60A U79C	0.515
G59A A77G	0.867
C58G U65G	1.16
C58G U65C	0.782
C58G G68C	0.748
C58G G68A	1.03
C58U C64A	0.867
C58G C84U	0.721
C58A G67A	0.745
C58G U79A	0.571
C58A C84A	0.644
C58A C84U	0.919
C58A C84G	0.764

Variant	self-cleavage
G59A C85A	1.1
G59A C85G	1.13
U60A A78G	0.808
U60A A78U	0.249
U60A A78C	0
G59A C66U	0.849
G59A C66G	1.11
C58G A71U	0.779
C58G A71G	1.07
G59U C84U	0.865
G59U C84G	0.731
G59A G67A	0.979
C58U G81C	0.31
C58U G81A	0.584
C58U G81U	0.289
C58A U65C	1.19
C58A G73U	0.383
C58A G73C	0.68
G59A A78U	0.346
G59A A78G	0.631
C58G G82A	0.277

Variant	self-cleavage
C58G G82C	0.302
U60C C61A	0.831
U60C C61G	0.751
G59A G74U	0.561
C58G G73A	0.406
U60A A87G	0.823
U60C C66A	1.14
C58U G80U	0.132
G59A C62G	0.502
G59A C62A	0.678
U60C A77U	0.831
U60G C63U	0.982
U60G C63G	0.293
G59U C75U	0.145
C58A U69A	1.07
C58A U69G	1.04
C58U C84U	0.731
C58U C84A	1.02
G59U G74C	0.271
G59U G74A	0.46
G59U G74U	0.502
